Substrate in data set [1]: NC(=O)c1ccc[n+]([C@@H]2O[C@H](CO)[C@@H](O)[C@H]2O)c1
As to the kind of experiment: purified protein. Conditions: free enzyme, ATP 1 mM, 10 mM MgCl2, 20 mM Tris-HCl pH 5.8, optimal temperature (30 °C for free enzyme).

Substrate in data set [2]: Nc1ncnc2c1ncn2[C@@H]1O[C@H](COP(=O)(O)OP(=O)(O)OP(=O)(O)O)[C@@H](O)[C@H]1O
As to the kind of experiment: HPLC of NMN formed, Michaelis-Menten fit. It counts as biochemical, Saccharomyces cerevisiae. Conditions: free enzyme, NR 1 mM, 10 mM MgCl2, 20 mM Tris-HCl pH 5.8, optimal temperature (30 °C for free enzyme).

B1: reScNRK1 (recombinant nicotinamide riboside kinase1; nicotinamide nucleoside kinase1) (Saccharomyces cerevisiae S288C) (protein)
chain: MTSKKVILVALSGCSSSGKTTIAKLTASLFTKATLIHEDDFYKHDNEVPVDAKYNIQNWDSPEALDFKLFGKELDVIKQTGKIATKLIHNNNVDDPFTKFHIDRQVWDELKAKYDSINDDKYEVVIVDGFMIFNNTGISKKFDLKILVRAPYEVLKKRRASRKGYQTLDSFWVDPPYYFDEFVYESYRANHAQLFVNGDVEGLLDPRKSKNIKEFINDDDTPIAKPLSWVCQEILKLCKD
notes: free enzyme
For the protein B1, in data set [1], the Michaelis constant (Km) (in general, the substrate concentration at which the rate is half of its maximum) is 18.69 mM and the maximal velocity (Vmax) (in general, the top rate of the reaction or transport when substrate is in excess) is 98.4 µmol/min/mg. Moreover, in data set [2], the Michaelis-Menten constant (Km) was determined as 54.27 mM and the Vmax worked out at 137 µmol/min/mg.

Source of the values: article PMC9975500, “High level expression of nicotinamide nucleoside kinase from Saccharomyces cerevisiae and its purification and immobilization by one-step method” (Frontiers in Bioengineering and Biotechnology, 2023).
